Experimental data from article PMC9676460, “Dynamic acylome reveals metabolite driven modifications in Syntrophomonas wolfei” (Frontiers in Microbiology, 2022).
Values joined by “and” are separate entries in the source; they are usually repeats but may differ in a detail not shown here. Equal entries are not always repeated.

Biological target: the molecule itself
Test: crystal structure; Act2 alone; hanging drop, 0.1 M sodium formate pH 7.0, 12% PEG 3,350, room temperature; space group P 41 21 2; two molecules in the asymmetric unit; tetramer from crystal packing

B1: Syntrophomonas wolfei Göttingen Act2 (Swol_0675), acetyl-CoA acetyltransferase (enzyme)
chain: MAEINEVVVVGMARTPIGRYLGGLASVRANDLAIIAANAAIERAGVDPGIIDEIVGATCLHAGNGSLPPRIIGMKVGLPVRSGSCMVSQNCASGMRATEIACQNIMLGKTDISLVTAVESMSNIPYLLQQARSGYRMGDGKVQDAMLSDGLVCQLAGGHMGMTAENIAEKYGITREECDALALTSHQNAVKAVDEGIFDREIVPVVIKSKKGDKVISKDEHPIRGASLETMAKLPPAFKKGGVVTAANASGINDCAAAAVFMSKKKCEELGLKPLMKLVGICSEGVDAKVMGLGPAVAMPKVLKQAGWKYEDVDYWEVNEAFAAQVLGVVRMLKEEAGIELDFSKTNHNGSGIGLGHPVGATGLRIIVSMYYELERLGLTKGGASLCVGGGSAMASLWTRDI
notes: Act2, acetyl-CoA acetyltransferase encoded by the gene Swol_0675 of Syntrophomonas wolfei subsp. wolfei strain Göttingen; synthesized gene cloned into pMAPLe4; The asymmetric unit holds a homodimer; also called acetyl-CoA transferase; acyl-CoA transferase paralog; source: E. coli BL21-Gold (DE3), purified (NiNTA, TEV cleavage, Superdex 200 SEC); not shown: His6, N-terminal, cleaved
- stoichiometry N: 2 and 4
